Reference: paper PMC11914300, “Immediate early splicing controls translation in activated T-cells and is mediated by hnRNPC2 phosphorylation”

Legend:
Conditions in all cases: protein: recombinant; tags: N-terminal Twin-Strep-SUMO, removed with PreScission protease; chain copies: 4; label: 5' 32P
[1] = target: T1, hnRNPC2 WT (UniProt P07910 1-306); experiment: EMSA; 0-2000 nM protein, 10 pmol RNA; higher affinity than intron RNAs; EMSA: 20 mM Tris-HCl pH 8.0, 0.25 M NaCl, 1 mM DTT, 10% glycerol, 0.2 mM EDTA; 37 C, 20 min; 5% polyacrylamide gel
[2] = target: hnRNPC2 S115D (UniProt P07910 1-306, S115D); experiment: EMSA; 0-2000 nM protein, 10 pmol RNA; no difference from WT; EMSA: 20 mM Tris-HCl pH 8.0, 0.25 M NaCl, 1 mM DTT, 10% glycerol, 0.2 mM EDTA; 37 C, 20 min; 5% polyacrylamide gel
[3] = target: T1, hnRNPC2 WT; experiment: EMSA; 0-10 uM protein, 10 pmol RNA; EMSA: 20 mM Tris-HCl pH 8.0, 0.25 M NaCl, 1 mM DTT, 10% glycerol, 0.2 mM EDTA; 37 C, 20 min; 5% polyacrylamide gel

T1 sequence (P07910 whole entry): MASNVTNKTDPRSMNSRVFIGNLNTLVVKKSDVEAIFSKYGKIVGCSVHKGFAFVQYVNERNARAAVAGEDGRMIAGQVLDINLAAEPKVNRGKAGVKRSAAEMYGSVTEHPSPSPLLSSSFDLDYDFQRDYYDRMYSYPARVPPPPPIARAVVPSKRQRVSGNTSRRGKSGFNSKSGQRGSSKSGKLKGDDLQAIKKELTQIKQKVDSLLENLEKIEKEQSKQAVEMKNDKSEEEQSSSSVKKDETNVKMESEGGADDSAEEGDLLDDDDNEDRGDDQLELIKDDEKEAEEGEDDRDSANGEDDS
hnRNPC2 S115D, sequence (P07910 whole entry S115D): as the sequence (P07910 whole entry) above, with S115D counted along it

Row | Binder | binding result [1] | binding result [2] | binding result [3]
1 | UUUUUUUUUUUUUUUUUUUUUUUUUUUUUUUUUUUUUUUUUUUUU (ssRNA) [poly-U 45 nt] | binds | binds | 
2 | AUCUCUUGGCUAUCCCUCUUGCUUCUCCAG (ssRNA) [eIF5A intron 5 3' splice site RNA] |  |  | binds
3 | ACCCCCUGCACACUUACCCAAUCCUUUUAG (ssRNA) [RPL10 intron 6 3' splice site RNA] |  |  | binds
